# Data: US20240392003A1 (NUMAB THERAPEUTICS, published 2024)
# Positions count from the first letter of the chain named.
# B1: PRO2557 (bispecific antibody)
# chain: AFELTQSPSSLSASVGDRVTITCQASESINSRLAWYQQKPGQPPKLLIYDASDLTSGVPSRFSGSGSGTDFTLTISSLQPEDFATYYCQGYGGSSTTTFGCGTKLTVLGGGGGSEVQLVESGGGLVQPGGSLRLSCAASGFSLSSYDMSWVRQAPGKGLAWIGASYASGPTYYASWAKGRFTISRDNSKNTVYLQMNSLRAEDTATYFCARGGWTGTSHSNIWGQGTLVTVSSGGGGSGGGGSGGGGSGGGGSDIQMTQSPSSLSASVGDRVTITCQSSQSVFSNNYLAWFQQKPGQSPKRLIYSASTLASGVPSRFSGSGSGTDFTLTISSLQPEDFATYYCLGSYACSSADCYVFGTGTKVTVLGGGGGSEVQLVESGGGLVQPGGSLRLSCAASGFSLSSYAMNWVRQAPGKCLEWIGHINAGDIAYYATWAKGRFTISRDNSKNTVYLQMNSLRAEDTAVYFCARGAGGFSTGPFKLWGQGTLVTVSSGGGGSGGGGSAQQLTQSPSSLSASVGDRVTITCQASQNVWNNNYLSWFQQKPGKPPKLLIVTASTLASGVSSRFSGSGSGTDFTLTISSLQPEDFATYYCAGGFSGEIRAFGCGTKVTVLGGGGGSGGGGSGGGGSGGGGSQSQLVESGGGLVQPGGSLRLSCAVSGIDLSRNAMSWVRQAPGKCLEWIGIILTSGSTYYASWAKGRFTISKTSTTLDLQMNSLRAEDTAVYFCVRGIASSSLKSFWGQGTLVTVSS
# notes: trispecific anti-ROR1 x hSA x CD3 scMATCH3, single chain; also called 19-04-A10-sc06 scDb-o/28-21-D09-sc04 scDb-i/55-39-G02-sc06-scFv
# B2: PRO2507 (bispecific antibody)
# chain: AFELTQSPSSLSASVGDRVTITCQASESINSRLAWYQQKPGQPPKLLIYDASDLTSGVPSRFSGSGSGTDFTLTISSLQPEDFATYYCQGYGGSSTTTFGCGTKLTVLGGGGGSEVQLVESGGGLVQPGGSLRLSCAASGFSLSSYDMSWVRQAPGKGLAWIGASYASGPTYYASWAKGRFTISRDNSKNTVYLQMNSLRAEDTATYFCARGGWTGTSHSNIWGQGTLVTVSSGGGGSGGGGSGGGGSGGGGSDIQMTQSPSSLSASVGDRVTITCQSSQSVFSNNYLAWFQQKPGQSPKRLIYSASTLASGVPSRFSGSGSGTDFTLTISSLQPEDFATYYCLGSYACSSADCYVFGTGTKVTVLGGGGGSEVQLVESGGGLVQPGGSLRLSCAASGFSLSSYAMNWVRQAPGKCLEWIGHINAGDIAYYATWAKGRFTISRDNSKNTVYLQMNSLRAEDTAVYFCARGAGGFSTGPFKLWGQGTLVTVSSGGGGSGGGGSDVQMTQSPSSLSASVGDRVTITCRASENIYSGLAWYQQKPGKPPKLLIYRASTLASGVSSRFSGSGSGTDFTLTISSLQPEDFATYYCQGGYYSSSSTYIAFGTGTKVTVLGGGGGSGGGGSGGGGSGGGGSQSQVVESGGGLVQPGGSLRLSCAVSGFDLSSYAVSWVRQAPGKGLEWIGIIYPRANTYYASWAKGRFTISKDNSKNTVYLQMNSLRAEDTAVYFCARDRYDSGAYLYTTYFNLWGQGTLVTVSS
# notes: trispecific anti-ROR1 x hSA x CD3 scMATCH3, single chain; also called 19-04-A10-sc06 scDb-o/28-21-D09-sc04 scDb-i/55-38-D07-sc02-scFv
# B3: PRO2510 (bispecific antibody)
# chain: AFELTQSPSSLSASVGDRVTITCQASESINSRLAWYQQKPGQPPKLLIYDASDLTSGVPSRFSGSGSGTDFTLTISSLQPEDFATYYCQGYGGSSTTTFGCGTKLTVLGGGGGSEVQLVESGGGLVQPGGSLRLSCAASGFSLSSYDMSWVRQAPGKGLAWIGASYASGPTYYASWAKGRFTISRDNSKNTVYLQMNSLRAEDTATYFCARGGWTGTSHSNIWGQGTLVTVSSGGGGSGGGGSGGGGSGGGGSDIQMTQSPSSLSASVGDRVTITCQSSQSVFSNNYLAWFQQKPGQSPKRLIYSASTLASGVPSRFSGSGSGTDFTLTISSLQPEDFATYYCLGSYACSSADCYVFGTGTKVTVLGGGGGSEVQLVESGGGLVQPGGSLRLSCAASGFSLSSYAMNWVRQAPGKCLEWIGHINAGDIAYYATWAKGRFTISRDNSKNTVYLQMNSLRAEDTAVYFCARGAGGFSTGPFKLWGQGTLVTVSSGGGGSGGGGSAQQLTQSPSSLSASVGDRVTITCQASQNVWNNNYLSWFQQKPGKPPKLLIVTASTLASGVSSRFSGSGSGTDFTLTISSLQPEDFATYYCAGGFSGEIRAFGCGTKVTVLGGGGGSGGGGSGGGGSGGGGSQSQLVESGGGLVQPGGSLRLSCAVSGLSLSRNAMSWVRQAPGKCLEWIGIILTSGSTYYASWAKGRFTISKDNSKNTVYLQMNSLRAEDTAVYFCVRGIASSSLKSFWGQGTLVTVSS
# notes: trispecific anti-ROR1 x hSA x CD3 scMATCH3, single chain; also called 19-04-A10-sc06 scDb-o/28-21-D09-sc04 scDb-i/55-39-G02-sc05-scFv
# B4: PRO2509 (bispecific antibody)
# chain: B3 chain with C605T, C677G
# notes: trispecific anti-ROR1 x hSA x CD3 scMATCH3, single chain; also called 19-04-A10-sc06 scDb-o/28-21-D09-sc04 scDb-i/55-39-G02-sc02-scFv
# Molecular target: T1, human ROR1 expressed on cells (human, UniProt Q01973 30-937)
# Assay: cell-based or functional assay
Binder,Avg. % max. lysis (JIMT-1),Avg. % max. lysis (MDA-MB-231),Avg. % max. lysis (SKOV3),Avg. EC50 (nM) CD8 T cell act. (MDA-MB-231),Avg. EC50 (nM) CD8 T cell act. (SKOV3),Avg. EC50 (nM) Cytotoxicity (JIMT-1),Avg. EC50 (nM) Cytotoxicity (MDA-MB-231),Avg. EC50 (nM) Cytotoxicity (SKOV3)
B1,83%,78.2%,88%,0.52 nM,1.2 nM,3.4 nM,0.74 nM,1.3 nM
B2,63.9%,64.6%,79.1%,0.36 nM,0.34 nM,2 nM,0.47 nM,0.42 nM
B3,72.1%,65.5%,83.1%,0.087 nM,0.19 nM,1.1 nM,0.14 nM,0.25 nM

# Molecular target: T1, human ROR1 expressed on cells
# Assay: flow cytometry, MDA-MB-231 cells, 1 mg/ml hSA
# Experimental: After incubation at 4° C. for 1 h in presence of 1 mg/mi of human serum albumin (hSA), plates were washed and incubated with specific detection antibodies.
# The binding of anti-ROR1xhSAxCD3 scMATCH3 molecules to plasma membrane human ROR1 was assessed by flow cytometry.
Binder,EC50,Rel. maximum binding (MFIscMATCH3/MFIPRO2213)
B1,3.27 nM,2.43
B2,26.9 nM,2.88
B3,1.36 nM,2.61
B4,1.12 nM,2.57

# Molecular target: T2, recombinant human CD3 epsilon extra-cellular domain protein (His-Tag, SinoBiological) (human, UniProt P07766 23-126)
# T2 construct: extracellular domain; Bought; also called hCD3ε; human CD3ε; not shown: His tag
# Assay: SPR; hCD3ε immobilized, two-state fit (ka1)
row,Binder,kon
1,B1,430000 M⁻¹ s⁻¹
2,B2,340000 M⁻¹ s⁻¹
3,B3,1e+06 M⁻¹ s⁻¹
4,B4,1e+06 M⁻¹ s⁻¹

# Molecular target: T2, recombinant human CD3 epsilon …
# Assay: SPR; hCD3ε immobilized, two-state fit;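 note: biacore T200 measurement with target covalently coupled to a CM5 chip, antibody constructs injected as analyte over a concentration series, constants derived in Biacore Evaluation software 3.2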
# Experimental: Binding kinetics (including affinity) of the nine selected scMATCH3 molecules to recombinant human CD3 epsilon extra-cellular domain protein (hCD3ε; His-Tag, SinoBiological) were determined by SPR analysis on a T200 device (Biacore, Cytiva). Recombinant hCD3ε molecules were covalently immobilized to a carboxymethylated dextran surface (CM5 sensorchip; Biacore, Cytiva) and a titration series of each MATCH3 molecule was injected as analyte. After each analyte injection-cycle, every flow channel on the sensor chip was regenerated (Glycine, pH 2.0 and 3 M MgCl₂), and a new concentration of MATCH3 molecule was injected. […] The apparent dissociation (kₐ₁) and association (kₐ₁) rate constants, the second reaction constants (kₐ₂ and kd) and the apparent dissociation equilibrium constant (KD) were calculated with the Biacore analysis software (Biacore Evaluation software Version 3.2, Cytiva) using a two-state binding model, and quality of the fits was monitored based on relative Chi2. The binding level was calculated as the maximum stability binding achieved normalized to the theoretical Rmax.
Binder,Kd,ka2,kd2
B1,5.5 nM,0.00042 s⁻¹,0.0014 s⁻¹
B2,9.4 nM,0.0069 s⁻¹,0.0078 s⁻¹
B3,2.1 nM,0.0013 s⁻¹,0.002 s⁻¹
B4,2.1 nM,0.00096 s⁻¹,0.0016 s⁻¹

# Molecular target: T3, recombinant human ROR1 protein (Fc-Tag, Acro Biosystems RO1-H5250) (human, UniProt Q01973 30-406)
# T3 construct: Bought; also called hROR1; recombinant human ROR1 ECD; not shown: Fc tag
# Assay: SPR; hROR1-Fc immobilized;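 note: biacore T200 SPR with ROR1 covalently coupled to a CM5 chip, analyte titration series, apparent rate and equilibrium constants fitted with a 1:1 Langmuir model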
Binder,Kd,koff,kon
B1,1.6 nM,0.00067 s⁻¹,420000 M⁻¹ s⁻¹
B2,< 0.12 nM,< 1e-05 s⁻¹,82000 M⁻¹ s⁻¹
B3,0.46 nM,0.0006 s⁻¹,1.3e+06 M⁻¹ s⁻¹
B4,0.36 nM,0.00047 s⁻¹,1.3e+06 M⁻¹ s⁻¹

# Molecular target: T1, human ROR1 expressed on cells
# Assay: cell-based or functional assay
# Remark: another data set of the same source
row,Binder,EC50 (nM) Cytotoxicity (MDA-MB-231)
1,B1,3.1 nM
2,B2,1 nM
3,B3,0.43 nM
4,B4,0.31 nM

# Molecular target: T1, human ROR1 expressed on cells
# Assay: cell-based or functional assay
# Remark: another data set of the same source
Binder,Avg. % max. CD8 T cell act. (JIMT-1),Avg. % max. CD8 T cell act. (MDA-MB-231),Avg. % max. CD8 T cell act. (SKOV3),Avg. EC50 (nM) CD8 T cell act. (JIMT-1),Avg. EC50 (nM) CD8 T cell act. (MDA-MB-231),Avg. EC50 (nM) CD8 T cell act. (SKOV3)
B1,48.7%,65.3%,81.5%,5.4 nM,0.52 nM,1.2 nM
B2,40.8%,68%,64.3%,2.9 nM,0.36 nM,0.34 nM
B3,47.6%,70.4%,79.3%,1.1 nM,0.087 nM,0.19 nM

# Molecular target: T1, human ROR1 expressed on cells
# Assay: cell-based or functional assay
# Remark: another data set of the same source
Binder,Avg. % max. CD4 T cell act. (JIMT-1),Avg. % max. CD4 T cell act. (MDA-MB-231),Avg. % max. CD4 T cell act. (SKOV3),Avg. EC50 (nM) CD4 T cell act. (JIMT-1),Avg. EC50 (nM) CD4 T cell act. (MDA-MB-231),Avg. EC50 (nM) CD4 T cell act. (SKOV3)
B1,69.3%,77.7%,87.5%,3.3 nM,0.2 nM,0.55 nM
B2,63.2%,81.8%,83.3%,2.4 nM,0.14 nM,0.22 nM
B3,68%,82%,87.3%,0.8 nM,0.036 nM,0.13 nM

# Molecular target: T2, recombinant human CD3 epsilon …
# Assay: SPR; hCD3ε immobilized, two-state fit (kd1)
row,Binder,koff
1,B1,0.0031 s⁻¹
2,B2,0.006 s⁻¹
3,B3,0.0036 s⁻¹
4,B4,0.0034 s⁻¹
